The target in the experiment is T1, MEKK3^43–127 (MEKK3–PB1) (UniProt Q99759 43-127).
T1 chain: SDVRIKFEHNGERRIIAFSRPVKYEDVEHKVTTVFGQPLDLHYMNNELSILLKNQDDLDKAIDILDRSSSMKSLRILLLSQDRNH
Description: ITC. In general terms: ITC needs no label: the signal is the heat of the interaction.

B1: NBR1^1–85 (human NBR1–PB1) (domain or fragment)
chain: MEPQVTLNVTFKNEIQSFLVSDPENTTWADIEAMVKVSFDLNTIQIKYLDEENEEVSINSQGEYEEALKMAVKQGNQLQMQVHEG
For orientation: Kd means the equilibrium constant for the complex coming apart. Lower therefore signals higher affinity. B1 displayed a Kd of 13.3 nM.
